# Assay results as given in patent US20220289816A1, “IMMUNOTHERAPY WITH B*07 RESTRICTED PEPTIDES AND COMBINATION OF PEPTIDES AGAINST CANCERS AND RELATED METHODS” (Immatics Biotechnologies GmbH, priority 2018, published 2022).
# Molecular target: HLA-B*07 (Homo sapiens, UniProt P01889)
# Assay: MHC binding assay (UV-ligand exchange, ELISA of stabilized MHC complexes)
# Conditions: peptide exchange yield on HLA-B*07, UV-ligand exchange
# In short: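 Peptide–MHC complexes were made by UV-ligand exchange, in which a UV-cleavable peptide is replaced by the test peptide. Exchange yield was measured by ELISA of stabilized complexes on streptavidin-coated plates, using HRP anti-β2m detection (1 h, 37 °C), TMB substrate and absorbance at 450 nm.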
row,Substance,Peptide exchange
1,66 (LPMTVISVL; listed as Homo sapiens) [compound 66],++++ (>75% = ++++)
2,35 (APLPPPRAL; listed as Homo sapiens) [compound 35],+++ (>50 = +++)
3,145 (VPAQRLGLLL; listed as Homo sapiens) [compound 145],+++ (>50 = +++)
4,167 (NVNPARKGL; listed as Homo sapiens) [compound 167],++++ (>75% = ++++)
5,269 (FTVSSSSAM; listed as Homo sapiens) [compound 269],++ (>20% = ++)
6,198 (LPSPAHAFRAL; listed as Homo sapiens) [compound 198],+++ (>50 = +++)
7,453 (APALPGQVTI; listed as Homo sapiens) [compound 453],++++ (>75% = ++++)
8,86 (ALLLRGVTL; listed as Homo sapiens) [compound 86],++ (>20% = ++)
9,108 (APRGSPPI; listed as Homo sapiens) [compound 108],+++ (>50 = +++)
10,369 (RPYGCVLRAA; listed as Homo sapiens) [compound 369],++++ (>75% = ++++)
11,140 (TPFPDIHWF; listed as Homo sapiens) [compound 140],++++ (>75% = ++++)
12,112 (YPSPLNKHSF; listed as Homo sapiens) [compound 112],+++ (>50 = +++)
13,84 (MPMQDIKMI; listed as Homo sapiens) [compound 84],+++ (>50 = +++)
14,456 (VPVSHPVLTL; listed as Homo sapiens) [compound 456],+++ (>50 = +++)
15,302 (IPIDQILNSF; listed as Homo sapiens) [compound 302],+++ (>50 = +++)
16,67 (VPVSRPVL; listed as Homo sapiens) [compound 67],++++ (>75% = ++++)
17,113 (KPHLDRRGAVI; listed as Homo sapiens) [compound 113],++++ (>75% = ++++)
18,347 (SPLEKINSF; listed as Homo sapiens) [compound 347],++++ (>75% = ++++)
19,470 (RPNGEVKSEL; listed as Homo sapiens) [compound 470],++++ (>75% = ++++)
20,488 (LPLGGLPLLI; listed as Homo sapiens) [compound 488],+++ (>50 = +++)
21,383 (KPRATWTLKL; listed as Homo sapiens) [compound 383],+++ (>50 = +++)

row,Substance,Peptide exchange
1,478 (APKFISPASQL; listed as Homo sapiens) [compound 478],++++ (>75% = ++++)
2,368 (NPASRLTAL; listed as Homo sapiens) [compound 368],++++ (>75% = ++++)
3,343 (RPRPPKVLGL; listed as Homo sapiens) [compound 343],+++ (>50 = +++)
4,89 (FLIPRAGWLAGL; listed as Homo sapiens) [compound 89],++ (>20% = ++)
5,70 (VPAQRLGLL; listed as Homo sapiens) [compound 70],++++ (>75% = ++++)
6,133 (LPELPTTLTF; listed as Homo sapiens) [compound 133],++ (>20% = ++)
7,334 (YPLSLALHF; listed as Homo sapiens) [compound 334],++++ (>75% = ++++)
8,96 (QPSLVQAIF; listed as Homo sapiens) [compound 96],++++ (>75% = ++++)
9,480 (VPAAPTKAL; listed as Homo sapiens) [compound 480],+++ (>50 = +++)
10,233 (MAYDRFIAI; listed as Homo sapiens) [compound 233],+++ (>50 = +++)
11,92 (TSPLPPTV; listed as Homo sapiens) [compound 92],+++ (>50 = +++)
12,271 (SPTPVFTTL; listed as Homo sapiens) [compound 271],+++ (>50 = +++)
13,211 (IPDTIASVL; listed as Homo sapiens) [compound 211],+++ (>50 = +++)
14,27 (RIRVTSEVL; listed as Homo sapiens) [compound 27],+++ (>50 = +++)
15,99 (MPVSAFTVI; listed as Homo sapiens) [compound 99],++++ (>75% = ++++)
16,242 (IPETASVVAI; listed as Homo sapiens) [compound 242],+++ (>50 = +++)
17,20 (MVLGIGPVL; listed as Homo sapiens) [compound 20],++++ (>75% = ++++)
18,52 (KEDNPSGHTYTL; listed as Homo sapiens) [compound 52],+++ (>50 = +++)
19,165 (RPSKEMQVTI; listed as Homo sapiens) [compound 165],++++ (>75% = ++++)
20,493 (LPLQQYKLV; listed as Homo sapiens) [compound 493],+ (>10% = +)
21,40 (FPRTVKHIDAAL; listed as Homo sapiens) [compound 40],++++ (>75% = ++++)

row,Substance,Peptide exchange
1,328 (LPLHRGDLVI; listed as Homo sapiens) [compound 328],+++ (>50 = +++)
2,83 (AVSSHHNVI; listed as Homo sapiens) [compound 83],++ (>20% = ++)
3,119 (KATEYVHSL; listed as Homo sapiens) [compound 119],+ (>10% = +)
4,32 (APMAPGRSPL; listed as Homo sapiens) [compound 32],++++ (>75% = ++++)
5,186 (VPLPAGGGTVLT; listed as Homo sapiens) [compound 186],+ (>10% = +)
6,494 (LPLRAVNLNL; listed as Homo sapiens) [compound 494],+++ (>50 = +++)
7,457 (RPPLSQRHTF; listed as Homo sapiens) [compound 457],++++ (>75% = ++++)
8,472 (LPMPAITWY; listed as Homo sapiens) [compound 472],++ (>20% = ++)
9,262 (SPSTSRTPLLSSL; listed as Homo sapiens) [compound 262],++++ (>75% = ++++)
10,2 (VPGSDPARYEFL; listed as Homo sapiens) [compound 2],+++ (>50 = +++)
11,327 (GPRTTQSSVL; listed as Homo sapiens) [compound 327],++++ (>75% = ++++)
12,196 (RPSGTAGAAL; listed as Homo sapiens) [compound 196],+++ (>50 = +++)
13,283 (RPQPGWRESL; listed as Homo sapiens) [compound 283],++++ (>75% = ++++)
14,254 (RVIQGTTTL; listed as Homo sapiens) [compound 254],++++ (>75% = ++++)
15,178 (VPYYPRANL; listed as Homo sapiens) [compound 178],+++ (>50 = +++)
16,71 (APFAPLHGGGSL; listed as Homo sapiens) [compound 71],+++ (>50 = +++)
17,310 (SPGWAQTQL; listed as Homo sapiens) [compound 310],++++ (>75% = ++++)
18,482 (QPSLKKIIL; listed as Homo sapiens) [compound 482],++++ (>75% = ++++)
19,352 (LPAFSKIGGIL; listed as Homo sapiens) [compound 352],++++ (>75% = ++++)
20,452 (QPVKKNTL; listed as Homo sapiens) [compound 452],++++ (>75% = ++++)
21,19 (WPRLPGAGL; listed as Homo sapiens) [compound 19],+++ (>50 = +++)

row,Substance,Peptide exchange
1,337 (IPTSRVITL; listed as Homo sapiens) [compound 337],++++ (>75% = ++++)
2,46 (QPISGNPVTL; listed as Homo sapiens) [compound 46],+++ (>50 = +++)
3,129 (MTLPATTLTL; listed as Homo sapiens) [compound 129],++ (>20% = ++)
4,122 (KPRTPFTTAQLL; listed as Homo sapiens) [compound 122],++++ (>75% = ++++)
5,171 (LPLGGHKSL; listed as Homo sapiens) [compound 171],+++ (>50 = +++)
6,214 (LPLKFFPII; listed as Homo sapiens) [compound 214],+ (>10% = +)
7,87 (APVGGNVTSSF; listed as Homo sapiens) [compound 87],+++ (>50 = +++)
8,231 (SPITLQAL; listed as Homo sapiens) [compound 231],++++ (>75% = ++++)
9,455 (FPVQATIDF; listed as Homo sapiens) [compound 455],++++ (>75% = ++++)
10,308 (RPDVVRTLL; listed as Homo sapiens) [compound 308],++++ (>75% = ++++)
11,164 (RAAGRRLQL; listed as Homo sapiens) [compound 164],++++ (>75% = ++++)
12,223 (KAHVRIEL; listed as Homo sapiens) [compound 223],++ (>20% = ++)
13,281 (NPRSPPATM; listed as Homo sapiens) [compound 281],++++ (>75% = ++++)
14,244 (VPAHLVAA; listed as Homo sapiens) [compound 244],++ (>20% = ++)
15,147 (HVAQPAVVL; listed as Homo sapiens) [compound 147],+++ (>50 = +++)
16,449 (RPKTSVNLISSL; listed as Homo sapiens) [compound 449],++++ (>75% = ++++)
17,228 (RPTAASQSRAL; listed as Homo sapiens) [compound 228],+++ (>50 = +++)
18,300 (HPYSDLADVF; listed as Homo sapiens) [compound 300],+++ (>50 = +++)
